Measurements as given in patent publication EP4659810A1 (Université de Strasbourg, dated 2025).
Numbering of substitutions follows the chain as printed.

B1: monoclonal antibody D10P4 (antibody, V domains shown)
VH: EVQLLESGGGLVQPGGSLRLSCVASGFSIRGYAMNWVRQAPGKGLEWVSSLTSNGATTYYADSVKGRFTISRDNSKNTLFLQMHSLRGEDTAVYYCAKDRDAEWLGSEPFDPWGQGTLVTVSS
VL: EIVLTQSPGTLSLSPGERATLSCRASQRVSSSYLAWYQHKFGQAPRLLIYGASRRATGIPDRFSGSGSGTDFTLTISRLEPEDFAVYYCQQYGSSPRSFGQGTKLEIK
B2: monoclonal antibody E3P7 (antibody, V domains shown)
VH: EVQLLESGGGLVQPGGSLRLSCAASGFSFRSYAMNWVRQAPGKGLEWVSSLNSAGVSTYYAESVKGRFTISRDNSKNTLYLQMNSLRGEDTAVYYCAKDRGVEWLGSEPIDPWGQGTLVTVSS
VL: B1 VL with S32N, F41P, G51R, R54S
B3: monoclonal antibody D6P7 (antibody, V domains shown)
VH: B2 VH with S28N, A33G, N52R, A54S, S57T, E62D, G101D, V102A, I110F
VL: B1 VL with R28S, V29L, S31N, F41P, Q43L, G51D, R54S, G67E, S95P
notes: Human mAb in human-IgG (heavy, kappa) expression plasmids, made in HEK293F
B4: monoclonal antibody G5P4 (antibody, V domains shown)
VH: B1 VH with I29L, K43R, T58A, S75F, F80Y, K98R, L118M
VL: not shown
notes: as for B3

Assays:
[1] = molecular target: VP1 on entire replicative virions of BKV genotype II (patient's isolate) (BK virus genotype II); test: cell-based or functional assay
[2] = molecular target: T1, VP1 on entire replicative virions of BK virus genotype Ia (Dunlop strain; ATCC VR-837) (BK virus genotype Ia (Dunlop strain), UniProt P03088 1-362); test: cell-based or functional assay
T1 sequence: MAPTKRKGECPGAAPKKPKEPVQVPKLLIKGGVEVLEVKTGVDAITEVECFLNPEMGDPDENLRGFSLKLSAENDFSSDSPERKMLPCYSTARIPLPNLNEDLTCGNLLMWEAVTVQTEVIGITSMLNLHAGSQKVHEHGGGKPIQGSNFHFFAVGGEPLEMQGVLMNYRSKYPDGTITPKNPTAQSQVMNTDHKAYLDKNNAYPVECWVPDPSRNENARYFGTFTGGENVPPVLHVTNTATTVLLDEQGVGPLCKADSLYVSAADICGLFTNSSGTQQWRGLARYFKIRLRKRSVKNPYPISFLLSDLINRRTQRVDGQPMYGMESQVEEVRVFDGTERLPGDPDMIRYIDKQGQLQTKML

[3] = molecular target: T2, VP1 pentamer of BKV genotype IV (BK virus genotype IV); test: BLI (OctetRED96e), biotinylated VP1 pentamer on streptavidin sensor, mAb 0 to 40 nM in solution
T2 construct: Obtained by gene synthesis and subcloned into pESPRIT002; also called VP1 pentamer from genotype IV

[4] = molecular target: T3, VP1 on BKV genotype II pseudovirions (GBR-12; AB263920) (BK virus genotype II (GBR-12; AB263920), UniProt P14996 1-362); test: cell-based or functional assay
T3 chain: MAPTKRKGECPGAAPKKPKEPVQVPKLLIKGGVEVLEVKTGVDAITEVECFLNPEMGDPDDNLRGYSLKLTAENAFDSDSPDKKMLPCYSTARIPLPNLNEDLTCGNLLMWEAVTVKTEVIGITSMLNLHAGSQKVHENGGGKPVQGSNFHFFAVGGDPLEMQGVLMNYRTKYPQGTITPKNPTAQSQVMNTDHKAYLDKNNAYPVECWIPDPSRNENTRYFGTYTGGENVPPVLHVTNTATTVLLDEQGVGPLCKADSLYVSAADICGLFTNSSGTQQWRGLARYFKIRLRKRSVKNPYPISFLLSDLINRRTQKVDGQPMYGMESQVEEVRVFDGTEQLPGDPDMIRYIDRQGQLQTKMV

[5] = molecular target: T4, VP1 on BKV genotype Ia pseudovirions (BK-D; JF894228) (BK virus genotype Ia (BK-D; JF894228), UniProt P03088 1-362); test: cell-based or functional assay
T4 sequence: T1 sequence

Binder	IC50, neutralization of fully replicative BKV virions (MRC5 cells) [1] [ng/mL]	IC50, neutralization of fully replicative BKV virions (MRC5 cells) [2] [ng/mL]	Kd [3] [nM]	IC50, neutralization of BKV pseudovirions (luciferase, 293TT cells) [4] [ng/mL]	IC50, neutralization of BKV pseudovirions (luciferase, 293TT cells) [5] [ng/mL]
B1	0.05	0.06	–	–	–
B2	0.005	0.03	–	–	–
B3	–	–	32.1	0.2	–
B4	–	–	136	–	0.2
